B1: equine IgG4 A426L (antibody, part only; not given: variable domains, not shown: another chain or arm of the molecule)
constant: ASTTAPKVFPLASHSAATSGSTVALGCLVSSYFPEPVTVSWNSGALTSGVHTFPSVLQSSGLYSLSSMVTVPASSLKSQTYICNVAHPASSTKVDKKIVIKECNGGCPAECLQVGPSVFIFPPKPKDVLMISRTPTVTCVVVDVGHDFPDVQFNWYVDGVETHTATTEPKQEQFNSTYRVVSVLPIQHKDWLSGKEFKCKVNNKALPAPVERTISKPTGQPREPQVYVLAPHRDELSKNKVSVTCLVKDFYPTDIDIEWKSNGQPEPETKYSTTPAQLDSDGSYFLYSKLTVETNRWQQGTTFTCLVMHEALHNHYTEKSVSKSPGK
B2: equine IgG4 A426N (antibody, part only; not given: variable domains, not shown: another chain or arm of the molecule)
constant: ASTTAPKVFPLASHSAATSGSTVALGCLVSSYFPEPVTVSWNSGALTSGVHTFPSVLQSSGLYSLSSMVTVPASSLKSQTYICNVAHPASSTKVDKKIVIKECNGGCPAECLQVGPSVFIFPPKPKDVLMISRTPTVTCVVVDVGHDFPDVQFNWYVDGVETHTATTEPKQEQFNSTYRVVSVLPIQHKDWLSGKEFKCKVNNKALPAPVERTISKPTGQPREPQVYVLAPHRDELSKNKVSVTCLVKDFYPTDIDIEWKSNGQPEPETKYSTTPAQLDSDGSYFLYSKLTVETNRWQQGTTFTCNVMHEALHNHYTEKSVSKSPGK
B3: equine IgG4 A426V (antibody, part only; not given: Variable domains, not shown: another chain or arm of the molecule)
constant: ASTTAPKVFPLASHSAATSGSTVALGCLVSSYFPEPVTVSWNSGALTSGVHTFPSVLQSSGLYSLSSMVTVPASSLKSQTYICNVAHPASSTKVDKKIVIKECNGGCPAECLQVGPSVFIFPPKPKDVLMISRTPTVTCVVVDVGHDFPDVQFNWYVDGVETHTATTEPKQEQFNSTYRVVSVLPIQHKDWLSGKEFKCKVNNKALPAPVERTISKPTGQPREPQVYVLAPHRDELSKNKVSVTCLVKDFYPTDIDIEWKSNGQPEPETKYSTTPAQLDSDGSYFLYSKLTVETNRWQQGTTFTCVVMHEALHNHYTEKSVSKSPGK
B4: equine IgG4 M428C (antibody, part only; not given: variable domains, not shown: another chain or arm of the molecule)
constant: ASTTAPKVFPLASHSAATSGSTVALGCLVSSYFPEPVTVSWNSGALTSGVHTFPSVLQSSGLYSLSSMVTVPASSLKSQTYICNVAHPASSTKVDKKIVIKECNGGCPAECLQVGPSVFIFPPKPKDVLMISRTPTVTCVVVDVGHDFPDVQFNWYVDGVETHTATTEPKQEQFNSTYRVVSVLPIQHKDWLSGKEFKCKVNNKALPAPVERTISKPTGQPREPQVYVLAPHRDELSKNKVSVTCLVKDFYPTDIDIEWKSNGQPEPETKYSTTPAQLDSDGSYFLYSKLTVETNRWQQGTTFTCAVCHEALHNHYTEKSVSKSPGK
B5: equine IgG4 A426S (antibody, part only; not given: variable domains, not shown: another chain or arm of the molecule)
constant: ASTTAPKVFPLASHSAATSGSTVALGCLVSSYFPEPVTVSWNSGALTSGVHTFPSVLQSSGLYSLSSMVTVPASSLKSQTYICNVAHPASSTKVDKKIVIKECNGGCPAECLQVGPSVFIFPPKPKDVLMISRTPTVTCVVVDVGHDFPDVQFNWYVDGVETHTATTEPKQEQFNSTYRVVSVLPIQHKDWLSGKEFKCKVNNKALPAPVERTISKPTGQPREPQVYVLAPHRDELSKNKVSVTCLVKDFYPTDIDIEWKSNGQPEPETKYSTTPAQLDSDGSYFLYSKLTVETNRWQQGTTFTCSVMHEALHNHYTEKSVSKSPGK
B6: equine IgG4 M428D (antibody, part only; not given: Variable domains, not shown: another chain or arm of the molecule)
constant: ASTTAPKVFPLASHSAATSGSTVALGCLVSSYFPEPVTVSWNSGALTSGVHTFPSVLQSSGLYSLSSMVTVPASSLKSQTYICNVAHPASSTKVDKKIVIKECNGGCPAECLQVGPSVFIFPPKPKDVLMISRTPTVTCVVVDVGHDFPDVQFNWYVDGVETHTATTEPKQEQFNSTYRVVSVLPIQHKDWLSGKEFKCKVNNKALPAPVERTISKPTGQPREPQVYVLAPHRDELSKNKVSVTCLVKDFYPTDIDIEWKSNGQPEPETKYSTTPAQLDSDGSYFLYSKLTVETNRWQQGTTFTCAVDHEALHNHYTEKSVSKSPGK
B7: equine IgG4 A426R (antibody, part only; not given: variable domains, not shown: another chain or arm of the molecule)
constant: ASTTAPKVFPLASHSAATSGSTVALGCLVSSYFPEPVTVSWNSGALTSGVHTFPSVLQSSGLYSLSSMVTVPASSLKSQTYICNVAHPASSTKVDKKIVIKECNGGCPAECLQVGPSVFIFPPKPKDVLMISRTPTVTCVVVDVGHDFPDVQFNWYVDGVETHTATTEPKQEQFNSTYRVVSVLPIQHKDWLSGKEFKCKVNNKALPAPVERTISKPTGQPREPQVYVLAPHRDELSKNKVSVTCLVKDFYPTDIDIEWKSNGQPEPETKYSTTPAQLDSDGSYFLYSKLTVETNRWQQGTTFTCRVMHEALHNHYTEKSVSKSPGK
B8: equine IgG4 A426T (antibody, part only; not given: Variable domains, not shown: another chain or arm of the molecule)
constant: ASTTAPKVFPLASHSAATSGSTVALGCLVSSYFPEPVTVSWNSGALTSGVHTFPSVLQSSGLYSLSSMVTVPASSLKSQTYICNVAHPASSTKVDKKIVIKECNGGCPAECLQVGPSVFIFPPKPKDVLMISRTPTVTCVVVDVGHDFPDVQFNWYVDGVETHTATTEPKQEQFNSTYRVVSVLPIQHKDWLSGKEFKCKVNNKALPAPVERTISKPTGQPREPQVYVLAPHRDELSKNKVSVTCLVKDFYPTDIDIEWKSNGQPEPETKYSTTPAQLDSDGSYFLYSKLTVETNRWQQGTTFTCTVMHEALHNHYTEKSVSKSPGK
B9: equine IgG4 A426Y (antibody, part only; not given: variable domains, not shown: another chain or arm of the molecule)
constant: ASTTAPKVFPLASHSAATSGSTVALGCLVSSYFPEPVTVSWNSGALTSGVHTFPSVLQSSGLYSLSSMVTVPASSLKSQTYICNVAHPASSTKVDKKIVIKECNGGCPAECLQVGPSVFIFPPKPKDVLMISRTPTVTCVVVDVGHDFPDVQFNWYVDGVETHTATTEPKQEQFNSTYRVVSVLPIQHKDWLSGKEFKCKVNNKALPAPVERTISKPTGQPREPQVYVLAPHRDELSKNKVSVTCLVKDFYPTDIDIEWKSNGQPEPETKYSTTPAQLDSDGSYFLYSKLTVETNRWQQGTTFTCYVMHEALHNHYTEKSVSKSPGK
B10: equine IgG4 A426Q (antibody, part only; not given: variable domains, not shown: another chain or arm of the molecule)
constant: ASTTAPKVFPLASHSAATSGSTVALGCLVSSYFPEPVTVSWNSGALTSGVHTFPSVLQSSGLYSLSSMVTVPASSLKSQTYICNVAHPASSTKVDKKIVIKECNGGCPAECLQVGPSVFIFPPKPKDVLMISRTPTVTCVVVDVGHDFPDVQFNWYVDGVETHTATTEPKQEQFNSTYRVVSVLPIQHKDWLSGKEFKCKVNNKALPAPVERTISKPTGQPREPQVYVLAPHRDELSKNKVSVTCLVKDFYPTDIDIEWKSNGQPEPETKYSTTPAQLDSDGSYFLYSKLTVETNRWQQGTTFTCQVMHEALHNHYTEKSVSKSPGK
B11: equine IgG4 A426W (antibody, part only; not given: variable domains, not shown: another chain or arm of the molecule)
constant: ASTTAPKVFPLASHSAATSGSTVALGCLVSSYFPEPVTVSWNSGALTSGVHTFPSVLQSSGLYSLSSMVTVPASSLKSQTYICNVAHPASSTKVDKKIVIKECNGGCPAECLQVGPSVFIFPPKPKDVLMISRTPTVTCVVVDVGHDFPDVQFNWYVDGVETHTATTEPKQEQFNSTYRVVSVLPIQHKDWLSGKEFKCKVNNKALPAPVERTISKPTGQPREPQVYVLAPHRDELSKNKVSVTCLVKDFYPTDIDIEWKSNGQPEPETKYSTTPAQLDSDGSYFLYSKLTVETNRWQQGTTFTCWVMHEALHNHYTEKSVSKSPGK
B12: equine IgG4 M428A (antibody, part only; not given: variable domains, not shown: another chain or arm of the molecule)
constant: ASTTAPKVFPLASHSAATSGSTVALGCLVSSYFPEPVTVSWNSGALTSGVHTFPSVLQSSGLYSLSSMVTVPASSLKSQTYICNVAHPASSTKVDKKIVIKECNGGCPAECLQVGPSVFIFPPKPKDVLMISRTPTVTCVVVDVGHDFPDVQFNWYVDGVETHTATTEPKQEQFNSTYRVVSVLPIQHKDWLSGKEFKCKVNNKALPAPVERTISKPTGQPREPQVYVLAPHRDELSKNKVSVTCLVKDFYPTDIDIEWKSNGQPEPETKYSTTPAQLDSDGSYFLYSKLTVETNRWQQGTTFTCAVAHEALHNHYTEKSVSKSPGK
B13: equine IgG4 A426M (antibody, part only; not given: Variable domains, not shown: another chain or arm of the molecule)
constant: ASTTAPKVFPLASHSAATSGSTVALGCLVSSYFPEPVTVSWNSGALTSGVHTFPSVLQSSGLYSLSSMVTVPASSLKSQTYICNVAHPASSTKVDKKIVIKECNGGCPAECLQVGPSVFIFPPKPKDVLMISRTPTVTCVVVDVGHDFPDVQFNWYVDGVETHTATTEPKQEQFNSTYRVVSVLPIQHKDWLSGKEFKCKVNNKALPAPVERTISKPTGQPREPQVYVLAPHRDELSKNKVSVTCLVKDFYPTDIDIEWKSNGQPEPETKYSTTPAQLDSDGSYFLYSKLTVETNRWQQGTTFTCMVMHEALHNHYTEKSVSKSPGK
B14: equine IgG4 A426P (antibody, part only; not given: Variable domains, not shown: another chain or arm of the molecule)
constant: ASTTAPKVFPLASHSAATSGSTVALGCLVSSYFPEPVTVSWNSGALTSGVHTFPSVLQSSGLYSLSSMVTVPASSLKSQTYICNVAHPASSTKVDKKIVIKECNGGCPAECLQVGPSVFIFPPKPKDVLMISRTPTVTCVVVDVGHDFPDVQFNWYVDGVETHTATTEPKQEQFNSTYRVVSVLPIQHKDWLSGKEFKCKVNNKALPAPVERTISKPTGQPREPQVYVLAPHRDELSKNKVSVTCLVKDFYPTDIDIEWKSNGQPEPETKYSTTPAQLDSDGSYFLYSKLTVETNRWQQGTTFTCPVMHEALHNHYTEKSVSKSPGK
B15: equine IgG1 T286K (antibody, part only; not given: variable domains, not shown: another chain or arm of the molecule)
constant: ASTTAPKVFALAPGCGTTSDSTVALGCLVSGYFPEPVKVSWNSGSLTSGVHTFPSVLQSSGFYSLSSMVTVPASTWTSETYICNVVHAASNFKVDKRIEPIPDNHQKVCDMSKCPKCPAPELLGGPSVFIFPPNPKDTLMITRTPEVTCVVVDVSQENPDVKFNWYMDGVEVRKATTRPKEEQFNSTYRVVSVLRIQHQDWLSGKEFKCKVNNQALPQPIERTITKTKGRSQEPQVYVLAPHPDELSKSKVSVTCLVKDFYPPEINIEWQSNGQPELETKYSTTQAQQDSDGSYFLYSKLSVDRNRWQQGTTFTCGVMHEALHNHYTQKNVSKNPGK
B16: equine IgG1 T286L (antibody, part only; not given: variable domains, not shown: another chain or arm of the molecule)
constant: ASTTAPKVFALAPGCGTTSDSTVALGCLVSGYFPEPVKVSWNSGSLTSGVHTFPSVLQSSGFYSLSSMVTVPASTWTSETYICNVVHAASNFKVDKRIEPIPDNHQKVCDMSKCPKCPAPELLGGPSVFIFPPNPKDTLMITRTPEVTCVVVDVSQENPDVKFNWYMDGVEVRLATTRPKEEQFNSTYRVVSVLRIQHQDWLSGKEFKCKVNNQALPQPIERTITKTKGRSQEPQVYVLAPHPDELSKSKVSVTCLVKDFYPPEINIEWQSNGQPELETKYSTTQAQQDSDGSYFLYSKLSVDRNRWQQGTTFTCGVMHEALHNHYTQKNVSKNPGK

These binders were tested against equine FcRn (large alpha subunit p51) / equine beta-2-microglobulin complex, biotinylated (equine) (UniProt P30441) (assay: SPR (Biacore), pH 6).
Chain of UniProt P30441 (P30441 21-118, one chain of several): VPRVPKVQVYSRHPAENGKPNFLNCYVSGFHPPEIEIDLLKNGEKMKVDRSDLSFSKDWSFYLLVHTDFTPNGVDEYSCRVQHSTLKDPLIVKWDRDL
B1 showed a Kd of 17.4 nM. In the case of B2, the Kd is reported as 18.7 nM. B3 showed a Kd of 18.8 nM. B4 showed a Kd of 53.2 nM. For B5, the Kd was 21.1 nM. B6 was tested, and the Kd was 40.7 nM. B7 was tested, and the Kd was 22 nM. With B8 the Kd was 15.8 nM. For B9, the Kd was 12.3 nM. B10 gave a Kd of 21.2 nM. Binder B11 has a Kd of 14.4 nM. With B12 the Kd was 23000 nM. B13 showed a Kd of 18.5 nM. In the case of B14, the Kd is reported as 9.8 nM. For B15, the Kd was 37.3 nM. With B16 the Kd was 12.3 nM.

Source: patent US20260070987A1
